Patent US9089613B2, “Drug activation system” (BANGOR UNIVERSITY, priority 2009, dated 2015)
Blank lines part the entries; values can stand above or below the molecule they belong to.

Experiment: Enzyme reactivity to prodrugs before and after attachment to colloidal gold (UV/Vis, NADH oxidation at 340 nm, hydroxylamine formation at 420 nm)
Assay type: biochemical
Details: for Specific activity: CB1954 prodrug, excess NADH, 37° C., bound samples on 20 nm gold colloid at molar ratio 87:1 enzymes:gold; for Retained activity (%): compared to the same concentration of enzyme free in solution, CB1954, molar ratio 87:1 enzymes:gold
Procedure: The ability of the different nitroreductases to metabolise the selected prodrugs is assessed as the conversion of NADH to NAD^+ by UV-vis spectra. The kinetic parameters of the purified enzymes are measured by UV-vis spectra before and after their attachment to gold particles based on their ability to use NADH or an alternative cofactor such as for example nicotinic acid riboside for the reduction of the prodrugs.
For these experiments, a 300 molar equivalents of enzyme were incubated with gold colloid, as this appeared to be the minimum amount of enzyme to cover the gold nanoparticle surface as determined by UV/Vis spectrometry, electrophoresis, and stability experiments. 3.206 nmol of the NfnB and cys-NfnB enzymes in ultra pure water were incubated with 1.5 ml 20 nm Naked Gold® (7.125×10^−3 μM) at a temperature of 4° C. overnight. As controls, the same treatment was carried out for NfnB and cys-NfnB in the absence of gold colloid. The next day the solutions were divided in half and each made up to a total volume of 970 μl using ultra pure water. To each sample, 20 μl of NADH (10 mM) were added and incubated at a temperature of 37° C. for 5 min. The absorbance spectra (750 nm-200 nm) were recorded every 1.5 min for 20 min upon the addition of 10 μl CB 1954 (10 mM) or 20 μl SN 23862 (5 mM) to the test sample, and an equivalent volume of dimethyl sulfoxide (DMSO) to the reference solution. The oxidation of NADH, measured as the decrease at 340 nm, was used as an indication of reactivity of the enzyme for the substrate. The reactivity experiments were done for enzyme: gold conjugate solutions and for enzymes free in solution.
The ability of both recombinant NfnB and cys-NfnB to activate the CB1954 prodrug, before and after attachment to the gold colloid were compared. The free enzyme is known to be active as a dimer in which each monomer is closely associated with a flavin mononucleotide (FMN) molecule, and has two substrate binding pockets as explained in Lovering et al. (Lovering A. L., Hyde E. I., Searle P. F. and White S. A., in Journal of Molecular Biology, 309: 203-213, 2001) or in Zenno et al. (Zenno S, Koike H, Tanokura M and Saigo' K, in Journal of Biochemistry, 120: 736-744, 1996). […]
The formation of hydroxylamine products was monitored at 420 nm using UV/Vis spectroscopy in the presence of enzyme and excess NADH as previously described. […]
It was observed that both the NADH and CB1954 substrates were consumed in the presence of recombinant NfnB, with the simultaneous production of the hydroxylamine product. The same experiment was performed for recombinant NfnB immobilised onto the gold colloid at a molar ratio of 87:1 enzymes to gold, to ensure that any activity measured was not due to excess enzyme free in solution. […]

- Retained activity (%): 100%
B1: NfnB (unbound): his-tagged wildtype NfnB nitroreductase from Escherichia coli K12, free in solution (protein, UniProt P38489 1-217, looked up)
Oxygen-insensitive NAD(P)H …: MDIISVALKRHSTKAFDASKKLTPEQAEQIKTLLQYSPSSTNSQPWHFIVASTEEGKARVAKSAAGNYVFNERKMLDASHVVVFCAKTAMDDVWLKLVVDQEDADGRFATPEAKAANDKGRKFFADMHRKDLHDDAEWMAKQVYLNVGNFLLGVAALGLDAVPIEGFDAAILDAEFGLKEKGYTSLVVVPVGHHSVEDFNATLPKSRLPQNITLTEV
modifications: His tag
notes: his-tagged wildtype NfnB nitroreductase from Escherichia coli K12, free in solution
- Specific activity: 0.169 µmol/min/mg

- Retained activity (%): 99.5%
B2: NfnB (bound to gold): recombinant NfnB nitroreductase immobilised onto 20 nm gold colloid (conjugate, UniProt P38489 1-217, looked up)
Oxygen-insensitive NAD(P)H …: B1 Oxygen-insensitive NAD(P)H …
modifications: immobilised on gold colloid
notes: recombinant NfnB nitroreductase immobilised onto 20 nm gold colloid
- Specific activity: 0.168 µmol/min/mg
